Legend:
Assay type in all cases: cell-based
[1] = target: T1, PCAF (Homo sapiens, UniProt Q92831); test: Mammalian two-hybrid assay with PCAF; conditions: data not shown
T1 construct: expressed in transfected cells; host or cells: CV-1 (the same two-hybrid assay)
Experimental: These assays were conducted as described (He et al., 2002). In particular, the recommended procedure for the Mammalian Matchmaker two-hybrid assay kit (Clontech) was modified slightly by changing from a chloramphenicol acetyltransferase reporter to a Luciferase Reporter pFRLuc (Stratagene), which is under the control of five repeats of the upstream activating sequence for the binding of GAL4.

[2] = target: T2, TIF2(1140C) (Homo sapiens, UniProt Q15596); test: Mammalian two-hybrid assay in CV-1 cells with TIF2(1140C)
T2 construct: the PCR product of TIF2 with the TIF2-1140F and TIF2-1464R primers; expressed in transfected cells; host or cells: CV-1
T2 sequence (Q15596 1140-1464): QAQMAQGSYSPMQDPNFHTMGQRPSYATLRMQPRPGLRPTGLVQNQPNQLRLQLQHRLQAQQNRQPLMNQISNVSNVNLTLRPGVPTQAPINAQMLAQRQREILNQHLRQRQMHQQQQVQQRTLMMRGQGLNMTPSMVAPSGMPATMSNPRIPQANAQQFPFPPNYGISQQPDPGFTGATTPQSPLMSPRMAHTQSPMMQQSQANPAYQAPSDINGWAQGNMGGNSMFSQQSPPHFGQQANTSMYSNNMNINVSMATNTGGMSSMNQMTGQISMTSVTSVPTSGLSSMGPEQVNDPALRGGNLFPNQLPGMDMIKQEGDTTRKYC
Excerpt: FIG. 2A-2C illustrate the isolation and characterization of the partial clone of the protein that binds to TIF2.4. […] Five clones were obtained but only two (clones I and V) contained a protein that was needed for colony growth in the presence of the pSos/TIF2.4 fusion protein. After initial screening, only clone I (also named 6-6CL1) was selected for further investigation. FIG. 2B and FIG. 2C illustrate the selectivity of 6-6CL1 interactions with TIF2.4 in mammalian two-hybrid assays. Triplicate samples of CV-1 cells in 24-well plates were transiently transfected with the indicated GAL-DBD and VP16-AD plasmids along with the GAL4-regulated reporter, pFRLuc. The relative luciferase activity, normalized for the activity of the internal Renilla control, was determined and plotted as the average±S.D. The much lower activity of GAL/TIF2.4m123 was previously shown not to be due to unequal levels of protein expression (He et al., 2002). Similar results were obtained in three additional experiments. […] Triplicate samples of CV-1 cells in 24-well plates were analyzed as in (B&C) after being transiently transfected with GAL±6-6CL1 constructs and pFRLuc reporter along with VP16 chimeras of SRC-1 (FIG. 2D) or TIF2 (FIG. 2E) segments. Similar results for SRC-1 were obtained in two additional experiments (ND=not determined). […]

[3] = target: T3, thyroid receptor β (TRβ) (Homo sapiens, UniProt P10828); test: TRβ-mediated induction of reporter in CV-1 cells; conditions: triiodothyronine; regardless of whether TIF2 is present
T3 construct: the whole cell actions of TIF2 with full length AR and TRβ; expressed in transfected cells; host or cells: CV-1
T3 sequence (P10828 1-461): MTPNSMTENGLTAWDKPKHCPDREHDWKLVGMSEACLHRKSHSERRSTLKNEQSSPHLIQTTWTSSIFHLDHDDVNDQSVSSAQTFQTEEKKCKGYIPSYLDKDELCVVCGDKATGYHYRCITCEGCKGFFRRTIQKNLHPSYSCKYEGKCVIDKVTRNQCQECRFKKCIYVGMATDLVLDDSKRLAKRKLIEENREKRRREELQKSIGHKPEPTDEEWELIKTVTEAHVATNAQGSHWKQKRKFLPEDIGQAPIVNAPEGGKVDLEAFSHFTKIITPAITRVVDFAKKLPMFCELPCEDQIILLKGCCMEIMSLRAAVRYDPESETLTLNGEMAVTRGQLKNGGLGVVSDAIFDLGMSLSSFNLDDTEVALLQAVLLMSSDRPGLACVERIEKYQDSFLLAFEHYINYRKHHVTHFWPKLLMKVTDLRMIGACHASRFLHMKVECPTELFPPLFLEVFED
Experimental: FIG. 6D1-2 illustrate the effects of STAMP and TIF2 on androgen receptor (AR, FIG. 6D1) and thyroid receptor β (TRβ, FIG. 6D2) expression. […] Luciferase activities, normalized to the internal Renilla control values, and the fold changes in EC50 and fold induction were determined and plotted as in FIG. 4B.

[4] = target: T4, PPARγ2 (Homo sapiens, UniProt P37231); test: Mammalian two-hybrid assay with VP16 full length receptor: PPARγ2; conditions: 1 μM roziglitazone
T4 construct: plus VP16 fused to the indicated full length receptors; expressed in transfected cells; host or cells: CV-1
T4 sequence (P37231 1-505): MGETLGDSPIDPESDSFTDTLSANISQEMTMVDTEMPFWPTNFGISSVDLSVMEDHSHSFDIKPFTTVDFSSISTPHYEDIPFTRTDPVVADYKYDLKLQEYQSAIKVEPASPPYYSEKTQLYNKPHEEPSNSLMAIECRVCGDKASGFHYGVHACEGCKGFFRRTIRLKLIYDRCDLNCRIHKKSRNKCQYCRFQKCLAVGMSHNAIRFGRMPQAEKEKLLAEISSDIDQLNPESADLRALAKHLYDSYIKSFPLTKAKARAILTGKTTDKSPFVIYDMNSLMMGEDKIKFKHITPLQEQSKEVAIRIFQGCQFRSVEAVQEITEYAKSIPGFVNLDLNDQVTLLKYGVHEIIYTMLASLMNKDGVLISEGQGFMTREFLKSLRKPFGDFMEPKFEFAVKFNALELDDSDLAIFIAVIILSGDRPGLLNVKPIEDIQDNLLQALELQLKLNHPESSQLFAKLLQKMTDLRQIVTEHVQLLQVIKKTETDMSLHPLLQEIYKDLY
Experimental: FIG. 6C1-3 illustrate the association of STAMP with assorted steroid/nuclear receptors, including glucocorticoid receptors (GRs), progesterone receptors (PRs), androgen receptors (ARs), estrogen receptors (ER α or β), PPARγ2 receptors, thyroid receptor beta (TR), and retinoid (α) receptors (RAR α or RXR α). Triplicate samples of CV-1 cells were transfected (as described for FIG. 6B) with GAL, or GAL fused to TIF2.4 or STAMP834C, plus VP16 fused to the indicated full length receptors and incubated with the appropriate steroid (1 μM Dex, 20 nM R5020, 1 nM R1881, 0.1 μM triiodothyronine, or 1 μM estradiol, roziglitazone, or 9-cis-retinoic acid). The average relative luciferase activities of 2-3 experiments±S.E.M. were then plotted. FIG. 6C1 illustrates the effects of STAMP association upon GR, PR and AR induced expression. FIG. 6C2 illustrates the effects of STAMP association upon ERα, ERβ and PPARγ2 induced expression. FIG. 6C3 illustrates the effects of STAMP association upon TR, RARα and RXRα induced expression.
These assays were conducted as described (He et al., 2002). […]

T1 sequence (Q92831 whole entry, species assumed): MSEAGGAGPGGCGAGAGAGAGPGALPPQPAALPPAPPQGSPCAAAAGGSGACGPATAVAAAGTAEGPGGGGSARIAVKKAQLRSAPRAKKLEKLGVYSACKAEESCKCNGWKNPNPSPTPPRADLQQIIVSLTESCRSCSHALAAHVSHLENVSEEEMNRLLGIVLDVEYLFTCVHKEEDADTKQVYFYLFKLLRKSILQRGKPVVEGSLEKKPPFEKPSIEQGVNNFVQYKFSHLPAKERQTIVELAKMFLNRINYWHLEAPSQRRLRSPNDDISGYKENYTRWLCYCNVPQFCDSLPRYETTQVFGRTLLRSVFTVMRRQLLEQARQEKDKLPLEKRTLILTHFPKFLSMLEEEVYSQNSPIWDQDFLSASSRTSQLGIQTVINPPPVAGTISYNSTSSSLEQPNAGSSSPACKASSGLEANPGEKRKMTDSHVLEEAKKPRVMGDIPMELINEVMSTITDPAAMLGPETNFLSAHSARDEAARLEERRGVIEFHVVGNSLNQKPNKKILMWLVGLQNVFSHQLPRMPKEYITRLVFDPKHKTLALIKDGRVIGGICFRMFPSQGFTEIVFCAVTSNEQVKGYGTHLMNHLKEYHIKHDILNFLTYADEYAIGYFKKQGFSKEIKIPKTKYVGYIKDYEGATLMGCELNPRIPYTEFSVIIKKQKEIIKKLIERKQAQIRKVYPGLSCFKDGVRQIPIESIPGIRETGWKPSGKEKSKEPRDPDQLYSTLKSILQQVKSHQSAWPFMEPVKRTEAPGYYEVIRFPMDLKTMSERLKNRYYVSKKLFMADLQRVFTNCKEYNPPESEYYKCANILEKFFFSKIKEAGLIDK

B1: 6-6CL1: STAMP fragment amino acids 623-834, coactivator interaction domain (CID) (protein)
chain: ENTPKENSMKVREWNNKGGHCCKLETQELEPKFNLMQILQDNGNLSKMQARIAFSAYLQHVQIRLMKDSGGQTFSASWAAKEDEQMELVVRFLKRASNNLQHSLRMVLPSRRLALLERRRILAHQLGDFIIVYNKETEQMAEKKSKKKVEEEEEDGVNMENFQEFIRQASEAELEEVLTFYTQKNKSASVFLGTHSKISKNNNNYSDSGAKG
In the case of B1, the “association with PCAF” value [1] is reported as “negligible association” and the “interaction with TIF2(1140C)” value [2] is reported as “does not interact”.

B2: STAMP: SRC-1 and TIF2 Associated Modulatory Protein, 1277 amino acid human polypeptide, expressed from transfected plasmid (protein)
chain: MARDLEETASSSEDEEVISQEDHPCIMWTGGCRRIPVLVFHADAILTKDNNIRVIGERYHLSYKIVRTDSRLVRSILTAHGFHEVHPSSTDYNLMWTGSHLKPFLLRTLSEAQKVNHFPRSYELTRKDRLYKNIIRMQHTHGFKVFHILPQTFLLPAEYAEFCNSYSKDRGPWIVKPVASSRGRGVYLINNPNQISLEENILVSRYINNPLLIDDFKFDVRLYVLVTSYDPLVIYLYEEGLARFATVRYDQGAKNIRNQFMHLTNYSVNKKSGDYVSCDDPEVEDYGNKWSMSAMLRYLKQEGRDTTALMAHVEDLIIKTIISAELAIATACKTFVPHRSSCFELYGFDVLIDSTLKPWLLEVNLSPSLACDAPLDLKIKASMISDMFTVVGFVCQDPAQRASTRPIYPTFESSRRNPFQKPQRCRPLSASDAEMKNLVGSAREKGPGKLGGSVLGLSMEEIKVLRRVKEENDRRGGFIRIFPTSETWEIYGSYLEHKTSMNYMLATRLFQDRMTADGAPELKIESLNSKAKLHAALYERKLLSLEVRKRRRRSSRLRAMRPKYPVITQPAEMNVKTETESEEEEEVALDNEDEEQEASQEESAGFLRENQAKYTPSLTALVENTPKENSMKVREWNNKGGHCCKLETQELEPKFNLMQILQDNGNLSKMQARIAFSAYLQHVQIRLMKDSGGQTFSASWAAKEDEQMELVVRFLKRASNNLQHSLRMVLPSRRLALLERRRILAHQLGDFIIVYNKETEQMAEKKSKKKVEEEEEDGVNMENFQEFIRQASEAELEEVLTFYTQKNKSASVFLGTHSKISKNNNNYSDSGAKGDHPETIMEEVKIKPPKQQQTTEIHSDKLSRFTTSAEKEAKLVYSNSSSGPTATLQKIPNTHLSSVTTSDLSPGPCHHSSLSQIPSAIPSMPHQPTILLNTVSASASPCLHPGAQNIPSPTGLPRCRSGSHTIGPFSSFQSAAHIYSQKLSRPSSAKAGSCYLNKHHSGIAKTQKEGEDASLYSKRYNQSMVTAELQRLAEKQAARQYSPSSHINLLTQQVTNLNLATGIINRSSASAPPTLRPIISPSGPTWSTQSDPQAPENHSSSPGSRSLQTGGFAWEGEVENNVYSQATGVVPQHKYHPTAGSYQLQFALQQLEQQKLQSRQLLDQSRARHQAIFGSQTLPNSNLWTMNNGAGCRISSATASGQKPTTLPQKVVPPPSSCASLVPKPPPNHEQVLRRATSQKASKGSSAEGQLNGLQSSLNPAASVPITSSTDPAHTKI
With B2 the “increase of the fold induction with TRβ” value [3] was “little ability” and the “left-shift in the dose-response curve with TRβ” value [3] was “little ability”.

B3: STAMP834C: STAMP fragment amino acids 834-1277, receptor interaction domain (RID) (protein)
chain: GDHPETIMEEVKIKPPKQQQTTEIHSDKLSRFTTSAEKEAKLVYSNSSSGPTATLQKIPNTHLSSVTTSDLSPGPCHHSSLSQIPSAIPSMPHQPTILLNTVSASASPCLHPGAQNIPSPTGLPRCRSGSHTIGPFSSFQSAAHIYSQKLSRPSSAKAGSCYLNKHHSGIAKTQKEGEDASLYSKRYNQSMVTAELQRLAEKQAARQYSPSSHINLLTQQVTNLNLATGIINRSSASAPPTLRPIISPSGPTWSTQSDPQAPENHSSSPGSRSLQTGGFAWEGEVENNVYSQATGVVPQHKYHPTAGSYQLQFALQQLEQQKLQSRQLLDQSRARHQAIFGSQTLPNSNLWTMNNGAGCRISSATASGQKPTTLPQKVVPPPSSCASLVPKPPPNHEQVLRRATSQKASKGSSAEGQLNGLQSSLNPAASVPITSSTDPAHTKI
For B3, the “interaction with PPARγ2” value [4] was “lack of interaction”.

Source: US7867500B2, “Cofactor that modulates steroid receptor activities” (The United States of America as represented by the …, priority 2004, dated 2011)
